What all share (assay): cell-based or functional assay
Experiment [1] deals with HIV-1 Env of isolate MGRM-D-002 (clade D pseudovirus) (HIV-1).
Experiment [2] addresses HIV-1 Env of isolate MGRM-D-011 (clade D pseudovirus) (HIV-1).
Experiment [3] deals with HIV-1 envelope glycoprotein (Env) of isolate 92RW008, clade A (HIV-1).
The target in experiment [4] is HIV-1 Env of isolate 93MW959 (clade C) (HIV-1 isolate 93MW959).
In experiment [5] the target is HIV-1 Env of pseudovirus MGRM-G-027 (HIV-1, clade G isolate MGRM-G-027).
The target of experiment [6] is HIV-1 Env of isolate 92UG001 (clade D pseudovirus) (HIV-1).
Experiment [7] deals with HIV-1 Env of isolate LAVI_C3 (HIV-1).
Experiment [8] addresses HIV-1 envelope glycoprotein (Env) of isolate 93RW029, clade A (HIV-1).
In experiment [9] the target is HIV-1 Env of isolate 92RW021 (clade A pseudovirus) (HIV-1).
The target in experiment [10] is HIV-1 94UG103 Env (pseudovirus, clade A) (HIV-1).
For experiment [11], the target named is HIV-1 Env of pseudovirus MGRM-G-015 (HIV-1, clade G isolate MGRM-G-015).
Experiment [12] addresses HIV-1 Env of pseudovirus MGRM-AG-013 (clade CRF_AG) (HIV-1).
In experiment [13] the target is HIV-1 Env of isolate MGRM-D-022 (pseudovirus) (HIV-1).
Experiment [14] deals with HIV-1 Env of isolate 92UG005 (clade D), on pseudovirus (HIV-1).
The target in experiment [15] is HIV-1 Env of isolate MGRM-F1-012 (pseudovirus) (HIV-1).
For experiment [16], the target named is HIV-1 Env of isolate MGRM-F1-013 (HIV-1).
The target of experiment [17] is HIV-1 Env of isolate MGRM-D-021 (pseudovirus) (HIV-1).
In experiment [18] the target is HIV-1 Env of isolate MGRM-D-003 (pseudovirus) (HIV-1).
The target in experiment [19] is HIV-1 Env of isolate SF162 (subtype B pseudovirus) (HIV-1) (UniProt P19550).
In experiment [20] the target is HIV-1 Env of isolate MGRM-D-028 (pseudovirus) (HIV-1).
For experiment [21], the target named is HIV-1 Env of isolate MGRM-Chronic-B-002 (subtype B pseudovirus) (HIV-1).
Experiment [22] deals with HIV-1 Env of isolate JR-CSF (subtype B pseudovirus) (HIV-1) (UniProt P20871).
Experiment [23] deals with HIV-1 Env of isolate MGRM-AG-011 (HIV-1).
For experiment [24], the target named is HIV-1 Env of isolate MGRM-C-026 (HIV-1).
The target of experiment [25] is HIV-1 Env of isolate MGRM-AE-005 (HIV-1).
The target of experiment [26] is HIV-1 Env of isolate MGRM-C-027 (HIV-1).
Experiment [27] concerns the target HIV-1 APV13 Env (pseudovirus, clade B) (HIV-1).
Experiment [28] deals with HIV-1 Env of pseudovirus isolate MGRM-G-028 (HIV-1).
The target of experiment [29] is HIV-1 Env of isolate MGRM-C-026 (pseudovirus) (HIV-1).
The target of experiment [30] is HIV-1 MGRM-AG-005 Env (pseudovirus) (HIV-1).
Experiment [31] addresses HIV-1 93IN905 envelope glycoprotein (Env) on pseudovirus (HIV-1).
Experiment [32] deals with HIV-1 Env of isolate MG RM-D-013 (HIV-1).

Chain of 4980_N08 (PGT-143) (antibody) (VH): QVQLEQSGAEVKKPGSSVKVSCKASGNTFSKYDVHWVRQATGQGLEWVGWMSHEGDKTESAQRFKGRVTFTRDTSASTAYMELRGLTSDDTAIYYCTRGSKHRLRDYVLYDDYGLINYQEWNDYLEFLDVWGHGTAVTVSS
Chain of 4980_N08 (PGT-143) (antibody) (VL): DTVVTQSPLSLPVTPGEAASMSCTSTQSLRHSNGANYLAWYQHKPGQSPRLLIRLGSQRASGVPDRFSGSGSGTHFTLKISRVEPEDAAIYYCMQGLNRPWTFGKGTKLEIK
Chain of 4993_K13 (PGT-141) (antibody) (VH): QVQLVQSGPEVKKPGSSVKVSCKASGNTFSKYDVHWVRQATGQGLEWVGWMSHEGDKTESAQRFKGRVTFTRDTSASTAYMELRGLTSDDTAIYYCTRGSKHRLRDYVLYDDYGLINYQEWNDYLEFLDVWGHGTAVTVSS
Chain of 4993_K13 (PGT-141) (antibody) (VL): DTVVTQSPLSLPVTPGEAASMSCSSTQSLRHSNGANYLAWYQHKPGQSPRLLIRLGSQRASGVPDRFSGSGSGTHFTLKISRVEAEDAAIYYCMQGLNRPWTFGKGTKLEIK
Chain of 4995_E20 (PGT-142) (antibody) (VH): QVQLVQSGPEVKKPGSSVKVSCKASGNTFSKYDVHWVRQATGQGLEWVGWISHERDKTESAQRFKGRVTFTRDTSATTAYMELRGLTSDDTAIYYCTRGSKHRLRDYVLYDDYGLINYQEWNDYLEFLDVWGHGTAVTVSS
Chain of 4970_K22 (PGT-144) (antibody) (VH): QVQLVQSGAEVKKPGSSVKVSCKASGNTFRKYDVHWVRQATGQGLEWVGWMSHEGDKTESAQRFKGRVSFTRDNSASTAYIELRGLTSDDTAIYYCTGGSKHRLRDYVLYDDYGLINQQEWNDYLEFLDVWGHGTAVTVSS
Chain of 4970_K22 (PGT-144) (antibody) (VL): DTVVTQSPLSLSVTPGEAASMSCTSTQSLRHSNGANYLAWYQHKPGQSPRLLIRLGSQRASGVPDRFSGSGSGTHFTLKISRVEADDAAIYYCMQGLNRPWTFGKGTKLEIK

One may read the IC50 as the concentration at which inhibition is half-maximal. A low value points to inhibition by little substance. With 1496_C09 (PG9) (TCN-109) (antibody), the IC50 (µg/ml), pseudovirus neutralization in [1] came to 0.027 µg/mL; in [2] it was 0.06 µg/mL; in experiment [3] it was 0.01 µg/mL; in experiment [4], 0.04 µg/mL; in [5] it was 0.01 µg/mL; in experiment [6], 41.8 µg/mL. Moreover, the IC50 (µg/ml), pseudovirus neutralization turned out to be 1.19 µg/mL in experiment [8], 0.05 µg/mL in experiment [9] and 1.51 µg/mL in [11]. Also, the figures for the IC50 in experiment [7] and in experiment [12] were 1.45 µg/mL and 0.23 µg/mL, respectively. Moreover, in experiment [10], the IC50 neutralization stood at 0.31 µg/mL.

Take 4838_L06 (PGT-121) (antibody): the IC50, pseudovirus neutralization in experiment [13] was above 50 µg/mL; in [14], above 10 µg/mL; in experiment [15], 1.91 µg/mL; in [17], 5.33 µg/mL; in experiment [18] it was 10.7 µg/mL; in experiment [20], 0.009 µg/mL. Also, the IC50 (µg/mL), pseudovirus neutralization in [16] amounted to 0.083 µg/mL; in experiment [19], 0.005 µg/mL; in experiment [21] it was 0.386 µg/mL; in [22], 0.027 µg/mL. Also, the IC50 in [23] and in [25] was above 50 µg/mL each time. Also, the neutralization IC50 was determined as 0.002 µg/mL in experiment [24] and 0.011 µg/mL in experiment [26].

On to 4858_P08 (PGT-123) (antibody), for which the IC50, pseudovirus neutralization in experiment [13] is above 50 µg/mL; in experiment [14], 2.49 µg/mL; in [15], 22.2 µg/mL; in [17] it was 11.1 µg/mL; in experiment [18], 3.74 µg/mL; in experiment [20] it was 0.132 µg/mL. Besides, the IC50 neutralization is 0.222 µg/mL in experiment [27] and 0.846 µg/mL in experiment [10]. In addition, the IC50 (µg/mL), pseudovirus neutralization amounted to 0.08 µg/mL in [16]; 0.008 µg/mL in [28]; 0.005 µg/mL in experiment [19]; 0.234 µg/mL in experiment [21]; 0.046 µg/mL in experiment [22]. This substance returned a Primary Neutralization Index (B cell culture supernatant) in experiment [29] of 33.8. The neutralization IC50 (pseudovirus) in [30] was 0.104 µg/mL. In addition, the IC50 in [23] and in [25] was above 50 µg/mL each time. For the same substance, the neutralization IC50 in experiment [31] was found to be 0.0071 µg/mL; in [24] it was 0.001 µg/mL; in [26], 0.02 µg/mL. Further, the neutralization IC80 in experiment [31] came out at 0.0281 µg/mL. The neutralization IC90 in experiment [31] worked out at 0.0625 µg/mL. This substance also displayed a neutralization IC95 in experiment [31] of 0.131 µg/mL.

As to 4877_D15 (PGT-122) (antibody), the IC50, pseudovirus neutralization is above 50 µg/mL in experiment [13]; above 10 µg/mL in experiment [14]; above 50 µg/mL in experiment [15]; 11.7 µg/mL in [17]; above 50 µg/mL in [18]; 3.34 µg/mL in experiment [20]. Besides, the IC50 neutralization in experiment [27] came to 0.992 µg/mL; in [10], 1.46 µg/mL. Moreover, the IC50 (µg/mL), pseudovirus neutralization in experiment [16] is 0.152 µg/mL; in [28], 0.01 µg/mL; in [19], 0.009 µg/mL; in experiment [21], 1.8 µg/mL; in experiment [22], 0.057 µg/mL. The same substance yielded a neutralization IC50 (pseudovirus) in [30] above 10 µg/mL. Moreover, the IC50 in experiment [23] and in experiment [25] was above 50 µg/mL throughout. Moreover, the neutralization IC50 in experiment [24] worked out at 0.006 µg/mL; in experiment [26], 0.039 µg/mL.

In experiment [30], 4970_K22 (PGT-144) (antibody) showed an IC50 (neutralizing activity, pseudovirus) above 10 µg/mL.

Substance 4980_N08 (PGT-143) (antibody) yielded an IC50 (neutralizing activity, pseudovirus) in experiment [30] of 0.244 µg/mL.

For 4993_K13 (PGT-141) (antibody), in experiment [30], the IC50 (neutralizing activity, pseudovirus) turned out to be 0.392 µg/mL.

In the case of 4995_E20 (PGT-142) (antibody), the IC50 (neutralizing activity, pseudovirus) in [30] amounted to 0.22 µg/mL.

For 5123_A06 (PGT-125) (antibody), the IC50, pseudovirus neutralization in [13] was 0.04 µg/mL; in experiment [14] it was above 10 µg/mL; in experiment [15] it was above 50 µg/mL; in [17] it was 0.015 µg/mL; in experiment [18], 0.065 µg/mL; in experiment [20], above 50 µg/mL. The IC50 neutralization in [27] was found to be 0.0128 µg/mL; in [10] it was 0.0124 µg/mL. The IC50 (µg/mL), pseudovirus neutralization was above 50 µg/mL in experiment [16]; 0.012 µg/mL in experiment [28]; 0.004 µg/mL in experiment [19]; 0.064 µg/mL in experiment [21]; 0.004 µg/mL in experiment [22]. Besides, the Polyclonal Transfectant Neutralization Index in experiment [29] was found to be 88.3. For the same substance, the Primary Neutralization Index (B cell culture supernatant) in experiment [29] came to 512. In [30], the neutralization IC50 (pseudovirus) is above 10 µg/mL. The IC50 was above 50 µg/mL in experiment [23] and 0.01 µg/mL in experiment [25]. Moreover, the results for the neutralization IC50 in experiment [24] and in experiment [26] were 0.005 µg/mL and above 50 µg/mL, respectively.

Take 5141_B17 (PGT-126) (antibody): the IC50, pseudovirus neutralization in experiment [13] is above 50 µg/mL; in experiment [14] it was 0.0181 µg/mL; in [15], 0.3 µg/mL; in [17] it was 0.047 µg/mL; in experiment [18], 0.021 µg/mL; in experiment [20], above 50 µg/mL. In [31], this substance came in with an IC50, pseudovirus neutralization of 0.0194 µg/mL. Moreover, the IC50 neutralization in experiment [27] was determined as 0.012 µg/mL; in experiment [10] it was 0.0091 µg/mL. Moreover, the IC50 (µg/mL), pseudovirus neutralization in [16] is above 50 µg/mL; in [28] it was 0.012 µg/mL; in experiment [19], 0.003 µg/mL; in experiment [21], 0.078 µg/mL; in [22], 0.008 µg/mL. Moreover, in [29], the Polyclonal Transfectant Neutralization Index came out at 102. Also, the Primary Neutralization Index (B cell culture supernatant) in experiment [29] was determined as 654. The same substance returned a neutralization IC50 (pseudovirus) in experiment [30] of 1.35 µg/mL. Besides, the IC50 in [23] amounted to 24.5 µg/mL; in experiment [25], 0.324 µg/mL. Further, in [31], the IC80 (pseudovirus neutralization) came to 0.0676 µg/mL. The same substance showed an IC90 (pseudovirus neutralization) in [31] of 0.14 µg/mL. Further, in experiment [31], the IC95 (pseudovirus neutralization) was determined as 0.275 µg/mL. The neutralization IC50 in [24] came out at 0.007 µg/mL; in experiment [26] it was 15.6 µg/mL.

As to 5145_B14 (PGT-127) (antibody), the IC50, pseudovirus neutralization in [13] is above 50 µg/mL; in experiment [15] it was above 50 µg/mL; in experiment [17], 0.056 µg/mL; in [18], 0.029 µg/mL; in [20], above 50 µg/mL. The IC50 (µg/mL), pseudovirus neutralization in experiment [16] is above 50 µg/mL; in experiment [28], 0.032 µg/mL; in experiment [19], 0.019 µg/mL; in experiment [21], 0.279 µg/mL; in [22], 0.018 µg/mL. Further, the Polyclonal Transfectant Neutralization Index in experiment [29] worked out at 2.62. The same substance had a Primary Neutralization Index (B cell culture supernatant) in experiment [29] of 86.9. The IC50 in [23] and in experiment [25] was above 50 µg/mL each time. In addition, the neutralization IC50 is 0.014 µg/mL in experiment [24] and above 50 µg/mL in experiment [26].

In experiment [14], PGV04 (antibody) registered an IC50 (µg/mL), pseudovirus neutralization of 0.44 µg/mL.

Take VRC01 (antibody): the figures for the IC50 in experiment [16] and in experiment [32] were 0.17 µg/mL and 0.087 µg/mL, respectively. For the same substance, the figures for the IC50 (µg/mL), pseudovirus neutralization in [24] and in [26] were 0.707 µg/mL and 0.125 µg/mL, respectively.

The values are drawn from patent publication US20250320281A1.
